The values below come from patent US20250011410A1 (INVETX, published 2025).

Substitutions are numbered along the chain they refer to. Numbers in names are those of the source. Where “and” joins values, the source holds several entries; their conditions need not be identical. Equal entries are not always repeated.

B1: felinized clone 101 Fab-SASA (wild-type) (Fab, V domains shown, not shown: small tags and cut ends)
VH: DVQLVESGGDLVKPGGSLRLTCVASGLSLTSSSMSWVRQAPGKGLQWVSTIYSNGGTYYTDSVKGRFTISKDNAENTLYLQMNNLKTEDTATYYCASIYYYDADYLHWYFDFWGQGALVTVSS
VL: EIQMTQSPTSLSASVGDRVTITCRASEGISNNLSWYQQTPGKAPKLLIYATSNLHSGVPSRFSGSGSGTDFTLTISSLQPEDFATYYCQQGYKWPLTFGGGTKLEITR
B2: felinized clone 101 (antibody, V domains shown)
VH: B1 VH
VL: EIQMTQSPTSLSASVGDRVTITCRASEGISNNLSWYQQTPGKAPKLLIYATSNLHSGVPSRFSGSGSGTDFTLTISSLQPEDFATYYCQQGYKWPLTFGGGTKLEIT
B3: AHF17602 (antibody, V domains shown)
VH: B1 VH with S35V, G55R
VL: B2 VL with S30A
notes: also called AIF17602
B4: SC-184_76 (antibody, IgG1a, V domains shown)
VH: B1 VH with S32D, I51L, Y52W, D102E
VL: B2 VL with S30A, Y92F
B5: SC-184_102-Arg (antibody, V domains shown)
VH: B1 VH with S32N, Y52W, G55R, D102E, D104E
VL: B2 VL with E27K, T51Q
notes: SC-184_102 containing the G55R mutation in VH; feline antibody captured on an anti-feline chip
B6: SC-184_110 (antibody, IgG1a, V domains shown)
VH: B1 VH with S32A, D102E, D104E
VL: B2 VL with N31K, S52D, Y92W
notes: also called SC-110
B7: SC-184_102 (antibody, IgG1a, V domains shown)
VH: B1 VH with S32N, Y52W, D102E, D104E
VL: B2 VL with E27K, T51Q
notes: also called SC-102
B8: SC-184_76-Arg (antibody, V domains shown)
VH: B1 VH with S32D, I51L, Y52W, G55R, D102E
VL: B2 VL with S30A, Y92F
notes: SC-184_76 containing the G55R mutation in VH; feline antibody captured on an anti-feline chip
B9: AHF17608 (Fab, V domains shown, not shown: small tags and cut ends)
VH: B1 VH with S35V, G55R
VL: B1 VL with S30A, N53V
B10: AHF17595 (Fab, V domains shown, not shown: small tags and cut ends)
VH: B1 VH with S35V, G55R, F112E
VL: B1 VL with S30Q
B11: AHF17593 (Fab, V domains shown, not shown: small tags and cut ends)
VH: B1 VH with S35V, G55R, S97Q
VL: B1 VL with S30A, N53V
notes: Fab-SASA, combinatorial library
B12: AHF17606 (Fab, V domains shown, not shown: small tags and cut ends)
VH: B1 VH with S35V, G55R
VL: B1 VL with S30A
B13: AHF17603 (Fab, V domains shown, not shown: small tags and cut ends)
VH: B1 VH with S35V, F112E
VL: B1 VL with S30A, N53I
B14: AHF17596 (Fab, V domains shown, not shown: small tags and cut ends)
VH: B1 VH with S35V, G55R
VL: B1 VL with S30A, N53V
B15: AHF17610 (Fab, V domains shown, not shown: small tags and cut ends)
VH: B1 VH with S35V, G55R
VL: B1 VL with S30A
B16: AHF17601 (Fab, V domains shown, not shown: small tags and cut ends)
VH: B1 VH with S35V, G55R, S97Q, F112E
VL: B1 VL with S30A
B17: AHF17605 (Fab, V domains shown, not shown: small tags and cut ends)
VH: B1 VH with S35V, S97Q
VL: B1 VL with S30A, N53I
notes: as for B11
B18: AHF17600 (Fab, V domains shown, not shown: small tags and cut ends)
VH: B1 VH with S35V, G55R
VL: B1 VL with N53V
B19: AHF17594 (Fab, V domains shown, not shown: small tags and cut ends)
VH: B1 VH with S35V
VL: B1 VL with S30A, N53V
B20: AHF17598 (Fab, V domains shown, not shown: small tags and cut ends)
VH: B1 VH with S35V, G55R, F112E
VL: B1 VL with S30A, N53I
B21: AHF17609 (Fab, V domains shown, not shown: small tags and cut ends)
VH: B1 VH with S35V, G55R
VL: B1 VL with S30A, N53I
B22: AHF17602 (Fab-SASA) (Fab, V domains shown, not shown: small tags and cut ends)
VH: B1 VH with S35V, G55R
VL: B1 VL with S30A
B23: AHF17604 (Fab, V domains shown, not shown: small tags and cut ends)
VH: B1 VH with S35V, G55R, S97Q
VL: B1 VL with S30Q, N53I
notes: as for B11
B24: AHF17607 (Fab, V domains shown, not shown: small tags and cut ends)
VH: B1 VH with S35V, G55R, F112E
VL: B1 VL with N53I
B25: AHF17599 (Fab, V domains shown, not shown: small tags and cut ends)
VH: B1 VH with S35V, G55R
VL: B1 VL with S30A, N53V
B26: AHF17597 (Fab, V domains shown, not shown: small tags and cut ends)
VH: B1 VH with S35V, G55R
VL: B1 VL with S30Q, N53I

The first test deals with T1, canine NGF tagged at the C-terminus with the Flag tag (canine, UniProt A0A8I3PYI3 122-241).
T1 construct: mature; Expressed with baculovirus technology; also called feline NGF (processed form identical)
The test is described as follows: SPR off-rate screen, Fab-SASA on BSA chip.
T1 sequence (A0A8I3PYI3 entry or part of it): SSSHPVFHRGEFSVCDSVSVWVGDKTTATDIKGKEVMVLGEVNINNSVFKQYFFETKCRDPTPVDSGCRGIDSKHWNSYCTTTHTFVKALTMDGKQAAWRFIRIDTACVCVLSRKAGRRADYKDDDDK
With B1, the Kd is 2.62 nM and 2.65 nM and 2.69 nM; the “Ratio WT-kd/clone-kd” value was found to be 1; the off-rate (koff) is 0.000939 s⁻¹ and 0.000943 s⁻¹ and 0.000947 s⁻¹; the kon was 359000 M⁻¹ s⁻¹ and 355000 M⁻¹ s⁻¹ and 351000 M⁻¹ s⁻¹.

A further test deals with T2, canine NGF tagged at the C-terminus with the Flag tag (canine, UniProt A0A8I3PYI3 122-241).
T2 construct: mature; 'mature' rests on the words 'processed form'; also called feline NGF (processed form identical)
In words: SPR, Biacore T200; antibody captured on anti-feline CM5 chip, NGF as analyte; 1:1 model.
T2 sequence (A0A8I3PYI3 entry or part of it): as above
Turning to B2, the Kd came out at 1.75 nM, the off-rate constant (koff) came out at 0.00138 s⁻¹ and the kon is 784000 M⁻¹ s⁻¹.

Turning to B3, the Kd turned out to be 0.161 nM, the koff worked out at 6.32e-05 s⁻¹ and the kon stood at 394000 M⁻¹ s⁻¹.

Regarding B4, the Kd is 0.472 nM, the off-rate (koff) amounted to 0.000396 s⁻¹ and the association rate constant (kon) turned out to be 838000 M⁻¹ s⁻¹.

For the molecule B5, the dissociation constant Kd amounted to 0.129 nM, the koff is 4.43e-05 s⁻¹ and the association rate constant (kon) amounted to 343000 M⁻¹ s⁻¹.

Take B6: the Kd stood at 0.773 nM, the dissociation rate constant (koff) was determined as 0.00038 s⁻¹ and the on-rate constant (kon) came to 492000 M⁻¹ s⁻¹.

B7 gave a Kd of 0.42 nM, an off-rate constant (koff) of 0.000198 s⁻¹ and a kon of 471000 M⁻¹ s⁻¹.

Turning to B8, the Kd was determined as 0.154 nM, the off-rate constant (koff) amounted to 9.01e-05 s⁻¹ and the kon was determined as 585000 M⁻¹ s⁻¹.

The next test concerns the target T1, canine NGF tagged at the C-terminus …. The test is described as follows: SPR off-rate assay, Fab-SASA on BSA chip.
On to B1, for which the dissociation constant (Kd) is 3.15 nM and 3.78 nM and 3.47 nM; the “Ratio (KD) WT/clones” value was determined as 0; the koff was 0.00179 s⁻¹ and 0.00158 s⁻¹ and 0.00169 s⁻¹; the on-rate (kon) is 569000 M⁻¹ s⁻¹ and 419000 M⁻¹ s⁻¹ and 494000 M⁻¹ s⁻¹.

In the case of B9, the Kd was at most 0.00439 nM, the “Ratio (KD) WT/clones” value is 788, the “Ratio (kd) WT/clones” value came out at 1680 and the dissociation rate constant (koff) is at most 1e-06 s⁻¹. This molecule came in with an association rate constant (kon) of 228000 M⁻¹ s⁻¹.

Consider B10, for which the dissociation constant Kd was at most 0.00562 nM, the “Ratio (KD) WT/clones” value was 615, the “Ratio (kd) WT/clones” value amounted to 1680 and the koff is at most 1e-06 s⁻¹. The kon amounted to 178000 M⁻¹ s⁻¹.

For the molecule B11, the dissociation constant Kd was at most 0.00613 nM, the “Ratio (KD) WT/clones” value worked out at 563, the “Ratio (kd) WT/clones” value came to 1680 and the koff was at most 1e-06 s⁻¹. The kon was found to be 163000 M⁻¹ s⁻¹.

Consider B12, for which the dissociation constant (Kd) turned out to be 0.107 nM, the “Ratio (KD) WT/clones” value is 32.3, the “Ratio (kd) WT/clones” value was 83.8 and the off-rate (koff) stood at 2.01e-05 s⁻¹. Also, the on-rate constant (kon) was determined as 187000 M⁻¹ s⁻¹.

On to B13, for which binding was put at a Kd of 0.664 nM, the “Ratio (KD) WT/clones” value turned out to be 5.2, the “Ratio (kd) WT/clones” value turned out to be 6.88 and the off-rate constant (koff) was 0.000245 s⁻¹. Besides, the kon came out at 368000 M⁻¹ s⁻¹.

With B14, the equilibrium dissociation constant (Kd) was determined as 0.0802 nM, the “Ratio (KD) WT/clones” value turned out to be 43.1, the “Ratio (kd) WT/clones” value amounted to 92.6 and the dissociation rate constant (koff) worked out at 1.82e-05 s⁻¹. The same molecule displayed an on-rate constant (kon) of 227000 M⁻¹ s⁻¹.

As for B15, the Kd is at most 0.00549 nM, the “Ratio (KD) WT/clones” value was 629, the “Ratio (kd) WT/clones” value was found to be 1680 and the koff is at most 1e-06 s⁻¹. This molecule yielded a kon of 182000 M⁻¹ s⁻¹.

Turning to B16, the Kd is at most 0.00344 nM, the “Ratio (KD) WT/clones” value amounted to 1010, the “Ratio (kd) WT/clones” value is 1680 and the koff was at most 1e-06 s⁻¹. Further, the on-rate constant (kon) was 291000 M⁻¹ s⁻¹.

For the molecule B17, the Kd turned out to be 0.82 nM, the “Ratio (KD) WT/clones” value worked out at 4.21, the “Ratio (kd) WT/clones” value was found to be 8.14 and the off-rate constant (koff) worked out at 0.000207 s⁻¹. The same molecule yielded a kon of 253000 M⁻¹ s⁻¹.

B18: the equilibrium dissociation constant (Kd) turned out to be 0.329 nM, the “Ratio (KD) WT/clones” value came to 10.5, the “Ratio (kd) WT/clones” value was found to be 29 and the koff came out at 5.81e-05 s⁻¹. The molecule also came in with an on-rate (kon) of 177000 M⁻¹ s⁻¹.

As for B19, the dissociation constant (Kd) turned out to be 0.931 nM, the “Ratio (KD) WT/clones” value came out at 3.71, the “Ratio (kd) WT/clones” value worked out at 5.14 and the koff was determined as 0.000328 s⁻¹. Moreover, the kon worked out at 353000 M⁻¹ s⁻¹.

As to B20, the Kd was found to be 0.179 nM, the “Ratio (KD) WT/clones” value worked out at 19.3, the “Ratio (kd) WT/clones” value was determined as 32.1 and the dissociation rate constant (koff) was 5.25e-05 s⁻¹. The molecule also yielded a kon of 294000 M⁻¹ s⁻¹.

As to B21, the dissociation constant Kd is at most 0.00439 nM, the “Ratio (KD) WT/clones” value amounted to 788, the “Ratio (kd) WT/clones” value was determined as 1680 and the koff is at most 1e-06 s⁻¹. In addition, the kon stood at 228000 M⁻¹ s⁻¹.

For B22, the equilibrium dissociation constant (Kd) is at most 0.00476 nM, the “Ratio (KD) WT/clones” value stood at 726, the “Ratio (kd) WT/clones” value is 1680 and the koff was at most 1e-06 s⁻¹. Besides, the on-rate constant (kon) was determined as 210000 M⁻¹ s⁻¹.

For B23, the dissociation constant Kd was determined as 0.321 nM, the “Ratio (KD) WT/clones” value was 10.8, the “Ratio (kd) WT/clones” value turned out to be 36.2 and the dissociation rate constant (koff) came to 4.66e-05 s⁻¹. The kon was 145000 M⁻¹ s⁻¹.

B24: the Kd was at most 0.00442 nM, the “Ratio (KD) WT/clones” value was 781, the “Ratio (kd) WT/clones” value came to 1680 and the koff is at most 1e-06 s⁻¹. This molecule also gave a kon of 226000 M⁻¹ s⁻¹.

As for B25, the Kd is at most 0.00472 nM, the “Ratio (KD) WT/clones” value came to 732, the “Ratio (kd) WT/clones” value is 1680 and the off-rate constant (koff) is at most 1e-06 s⁻¹. This molecule had a kon of 212000 M⁻¹ s⁻¹.

B26: the affinity, expressed as Kd, was 0.0544 nM; the “Ratio (KD) WT/clones” value turned out to be 63.5; the “Ratio (kd) WT/clones” value came to 156; the koff is 1.08e-05 s⁻¹. The molecule also displayed a kon of 199000 M⁻¹ s⁻¹.
